Patent US20210269549A1, “ANTI-SAS1B ANTIBODIES, ASSOCIATED METHODS OF USE, AND COMPOSITIONS AND METHODS FOR DETECTING AND TREATING CANCER” (UNIVERSITY OF VIRGINIA PATENT FOUNDATION, priority 2015, published 2021)

Legend:
human SAS1B [1] = biological target: T1, human SAS1B (Homo sapiens, UniProt Q6HA08); test: Western blot of human SAS1B probed with anti-human SAS1B murine mAbs; type: binding
T1 construct: made in house; host or cells: E. coli
T1 sequence (Q6HA08 24-431): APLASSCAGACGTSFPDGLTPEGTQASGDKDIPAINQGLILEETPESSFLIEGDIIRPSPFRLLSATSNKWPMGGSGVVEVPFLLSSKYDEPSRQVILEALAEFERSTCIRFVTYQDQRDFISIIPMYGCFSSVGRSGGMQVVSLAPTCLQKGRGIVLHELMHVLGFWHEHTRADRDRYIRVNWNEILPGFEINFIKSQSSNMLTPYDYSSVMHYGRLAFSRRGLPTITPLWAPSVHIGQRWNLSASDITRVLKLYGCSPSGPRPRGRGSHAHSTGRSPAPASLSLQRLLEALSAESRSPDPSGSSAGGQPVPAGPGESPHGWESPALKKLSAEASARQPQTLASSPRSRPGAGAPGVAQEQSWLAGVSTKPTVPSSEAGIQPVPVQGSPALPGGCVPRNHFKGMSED
Excerpt: A western blot of human SAS1B and mouse SAS1B was probed with anti-human SAS1B murine monoclonal antibodies SB1, SB2, SB3, SB4, SB5, SB6, and SB7.

[2] = system: MMMT539 (uterine cancer cell line); test: Live cell surface indirect immunofluorescence, MMMT539; type: cell-based, human; details: live cells on ice
Protocol: Anti-Human SAS1B mouse monoclonal antibodies reactive to SAS1B epitope on live cancer cell surfaces were identified by indirect immuno-fluorescence (IF) for the development of therapeutic antibodies. M1 (renal cancer cell line) and MMMT539 (uterine cancer cell line) cells were seeded at 20,000 cells in 1 ml per well on collagen coated coverslips in 24 well plates. The media was replaced 22 h post seeding. For antibody probing, cells were kept on ice for ˜8 to 18 min following 47 h post-seeding. The first antibody was added at 10 ug/ml, 20 ug/ml or 50 ug/ml in complete culture media with 15 mM NaN3 (pre-chilled), incubated on ice for 60 min, and the cells washed in complete culture media with 15 mM NaN3 in cold 1 ml, ×3. The second antibody, goat-antimouse-AF488 (pre-chilled), was added to the wells at 5 ug/ml in complete culture media with 15 mM NaN3 for 60 min on ice. The cells were washed in complete media with 15 mM NaN3, 1 ml, ×3 on ice. The cells were fixed in 4% PFA in PBS for 20 minutes on ice. The cells were washed in distilled water at RT, 1 ml, ×1 and mounted in 8 ul of SLOWFADE® Diamond Antifade Mountant with DAPI. An anti-EGFR monoclonal antibody was used as a positive control on live M1 cells. Epidermal growth factor receptor (EGFR) is a transmembrane glycoprotein and member of protein kinase superfamily. […] Most of the cells expressed the receptor and validated the live cell surface IF staining methodology for the screening of anti-human SAS1B mouse monoclonal antibodies. The receptor molecule was found on the cell surfaces. Anti-human CABYR monoclonal antibody 3A4 was used as a negative control on live MMMT539 cells. CABYR is a calcium binding cytoskeleton sperm protein with no transmembrane domain.

human SAS1B [3] = biological target: T1, human SAS1B; test: Immunoprecipitation of SAS1B from HEK293T cells transfected with SAS1B; type: binding
Protocol: HEK293T cells were transfected with human SAS1B full length cDNA for 66 h. Immuno-precipitation of SAS1B was completed with SB1, SB2, SB4 and SB5 monoclonal antibodies. Following SAS1B immunoprecipitation, detection was completed with mouse anti-His tag mAb at C-terminus. Immunoprecipitated samples were analyzed by protein staining with Coomassie staining. Immunoprecipitated sample was also analyzed by MS/MS analysis. VH and VL chain CDR1-3 regions were sequenced for the confirmed anti-SAS1B mAbs. Immunoprecipitation was performed with N-terminal mAbs from transfected cells extracted with RIPA/protease inhibitor. Detection of the SAS1B immunoprecipitation product was completed with HRP peroxidase conjugated mouse anti-His mAb at 1:3000 or 1:5000 dilution. HEK293T cells were seeded at 250,000. The cells were transfected with […] of SAS1B-SVA plasmid into each of the two T-75 flasks (at ˜90% confluency) for ˜66 h at 37 C and 5% CO2. Following transfection, two saline washes were completed with 1×HBSS. Lysed cells were incubated with RIPA+protease inhibitor for one hour on ice with mixing to ensure homogenous lysate and supernatant used for IP (RIPA: 25 mM Tris-HCl (pH 7.6), 150 mM NaCl, 1% NP-40, 1% sodium deoxycholate, 0.1% SDS). For the immunoprecipitation, 3 mg magnetic bead coupled protein G were suspended and incubated with […] of each SAS1B monoclonal antibody for 10 minutes. The magnetic bead/antibody complex was washed with PBST once, followed by incubation with […] antigen extract for 20 min. The post-immunoprecipitation sample was saved for comparison. Three 200 mL washes with washing buffer+protease inhibitor were completed. The fourth wash used only 100 mL of wash buffer+protease inhibitor. The magnetic beads were transferred to a new micro-centrifuge tube. 1× Lamelli buffer was added to bead/antibody/antigen complex for subsequent analysis. The sample was boiled at 98° C. for 10 min in 1× Lamelli buffer and the supernatant transferred to a new tube. The immunoprecipitation sample was analyzed by western blot and Coomassie blue staining. The SDS-PAGE samples (pre-IP, IP, and post IP extracts) were resolved with 12% TGX Criterion gels at 30 milliamps for 1 hr. Coomassie stain was added to determine the profile of IP samples. Following SDS-PAGE resolution, bands were transferred to nitrocellulose membrane at 1 Amp for 1 h at 5° C. The membrane was blocked with 5% dry milk/PBST, and incubated with mouse anti-His monoclonal antibody conjugated with HRP for 1 hr at RT at 1:3000 or 1:5000 dilution. The membranes were imaged with TMB solution.
A unique ˜52 kD band was recovered in SB5 IP. SB5 (IgG2b) has a different isotype than SB1 (IgG2a), and 3A7 (IgG1). The ˜52 kD band from the SB5 immunoprecipitation was isolated, restained with Coomassie blue and submitted for MS/MS to verify protein identity. The MS/MS nanospray ion source was operated at 2.5 kV. The digest was analyzed using the rapid switching capability of the instrument acquiring a full screen mass spectrum to determine peptide molecular weights followed by product ion spectra to determine amino acid sequence in sequential scans. This mode of analysis produces about 20,000 MS/MS spectra of ions ranging in abundance over several orders of magnitude. Not all MS/MS spectra are derived from peptides. The data were analyzed using the Sequest search algorithm against Uniprot Human and SwissProt.

[4] = biological target: T2, full-length SAS1B splice variant A polypeptide (Homo sapiens, UniProt Q6HA08); test: Western blot with mammalian cell-expressed recombinant SAS1B, full length; type: binding
T2 construct: made in house
T2 sequence (Q6HA08 24-431): T1 sequence (Q6HA08 24-431)
Protocol: SAS1B monoclonal antibodies were analyzed with mammalian cell-expressed recombinant SAS1B by western blotting.

B1: SB1: mouse anti-SAS1B monoclonal antibody, IgG2a; VH SEQ ID NO:12, VL SEQ ID NO:13 (antibody, listed as Mus musculus, V domains shown)
VH: EVQLQQSGPELVKPGSSVKISCKASGYTFTDYNMDWVKQSHGKSLEWIGAINPNNGGTSYNQKFKGKATLTVDKSSSTAYMELRSLTSEDSAVYYCATNEYWGQGTTLTVSS
VL: NIVMTQSPKSMSMSVGERVTLSCKASENVGTYVSWYQQKPEQSPKLLIYGASNRYTGVPDRFTGSGSATDFTLTISSVQAEDLADYHCGQSYSYPWTFGGGTKLEIK
Human SAS1B [1]
  Reactivity on western blot of human SAS1B and mouse SAS1B: reacts with both human and mouse SAS1B
  Specificity in western blot for human SAS1B antigen in an E. coli protein background: demonstrated specificity
[2]
  Fluorescence signal on the surface of live uterine tumor cells: clear fluorescence signal
Human SAS1B [3]
  Depletion of SAS1B in post IP sample compared to starting material: relative depletion of antigen in post IP samples
Human SAS1B [3]; HEK293T extract, western blot detection with anti-His mAb
  Pull down (immunoprecipitation) of SAS1B: pulled down
[4]
  Reaction with full-length SAS1B splice variant A polypeptide: reacted with the full-length SAS1B splice variant A polypeptide
